2 molecules from paper PMC5750235, “Trapping IgE in a closed conformation by mimicking CD23 binding prevents and disrupts FcεRI interaction” (Nature Communications, 2018) can be followed below.

Data set [1] deals with the molecule itself. Nature of the data set: crystal structure; 026 sdab:IgE Fc complex, 5 mg/ml in 20 mM HEPES, 50 mM NaCl, pH 7.2; sitting drops, 0.1 M imidazole pH 7.0, 11-12% PEG 20,000; 3.4 Å.
For another data set, the target named is T1, IgE Fc Cε3–4 fragment (human, UniProt P01854, (N-acetylglucosamine)2(mannose)5 hepta-saccharide on N394).
T1 construct: human IgE heavy chain constant region, domains Cε3 and Cε4, as found in the crystals; Not a designed construct: the crystals held this fragment and not the Cε2–4 that was expected; also called IgE Cε3–4; source: HEK-293; a small fraction in the purified IgE Fc Cε2–4 preparation, crystallized with 026 sdab
Described as above. The settings on record: both partners purified.

B1: IgE Fc Cε3–4 fragment (domain or fragment, human)
chain: RGVSAYLSRPSPFDLFIRKSPTITCLVVDLAPSKGTVNLTWSRASGKPVNHSTRKEEKQRNGTLTVTSTLPVGTRDWIEGETYQCRVTHPHLPRALMRSTTKTSGPRAAPEVYAFATPEWPGSRDKRTLACLIQNFMPEDISVQWLHNEVQLPDARHSTTQPRKTKGSGFFVFSRLEVTRAEWEQKDEFICRAVHEAASPSQTVQRAVSVNP
modifications: (N-acetylglucosamine)2(mannose)5 hepta-saccharide on N394
notes: human IgE heavy chain constant region, domains Cε3 and Cε4, as found in the crystals; Not a designed construct: the crystals held this fragment and not the Cε2–4 that was expected; also called IgE Cε3–4; source: HEK-293; a small fraction in the purified IgE Fc Cε2–4 preparation, crystallized with 026 sdab
On to B1, for which, in data set [1], the binding result is on record as “binds”.

B2: 026 sdab (VHH)
VHH: EVQLLESGGGLVQPGGSLRLSCAASGFTFGNYDMAWVRQAPGKRPEWVSSIDTGGDITHYADSVKGRFTISRDNAKNTLYLQMNSLRPEDTAVYWCATDEEYALGPNEFDYYGQGTLVTVSS
notes: llama-derived, humanized single-domain antibody; Synthetic gene; also called sdab 026; anti-IgE sdab 026
One may read the stoichiometry N as a count of units in the complex or per binding partner. Regarding B2, in the data set with IgE Fc Cε3–4 fragment, the “stoichiometry N” value was found to be 2 sdab per IgE Fc.
